Source: paper PMC10397247

Key:
Assay in all cases: two-hybrid library CCNG1;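 note: natural log of median RNA to DNA barcode read ratio; higher means stronger binding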
4H4073-bA = biological target: T1, 4H4073-bA
T1 chain: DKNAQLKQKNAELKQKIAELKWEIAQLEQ

4H457-bA = biological target: T2, 4H457-bA
T2 chain: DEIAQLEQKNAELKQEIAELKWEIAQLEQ

4H575-bA = biological target: T3, 4H575-bA
T3 chain: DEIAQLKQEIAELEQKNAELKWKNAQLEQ

4H683-bA = biological target: T4, 4H683-bA
T4 chain: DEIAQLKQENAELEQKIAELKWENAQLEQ

4H754-bA = biological target: T5, 4H754-bA
T5 chain: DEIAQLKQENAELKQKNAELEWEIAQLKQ

4H780-bA = biological target: T6, 4H780-bA
T6 chain: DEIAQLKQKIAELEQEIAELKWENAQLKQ

4H797-bA = biological target: T7, 4H797-bA
T7 chain: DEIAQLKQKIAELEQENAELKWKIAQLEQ

4H855-bA = biological target: T8, 4H855-bA
T8 chain: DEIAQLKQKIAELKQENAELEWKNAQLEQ

4H918-bA = biological target: T9, 4H918-bA
T9 chain: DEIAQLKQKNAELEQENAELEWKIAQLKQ

4H949-bN = biological target: T10, 4H949-bN
T10 chain: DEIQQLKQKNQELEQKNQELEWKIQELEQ

4H953-bA = biological target: T11, 4H953-bA
T11 chain: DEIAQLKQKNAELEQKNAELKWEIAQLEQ

4H968-bA = biological target: T12, 4H968-bA
T12 chain: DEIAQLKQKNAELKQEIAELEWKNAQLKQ

P3mSN = biological target: T13, P3mSN
T13 chain: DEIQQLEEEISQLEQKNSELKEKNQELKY

P5mSN = biological target: T14, P5mSN
T14 chain: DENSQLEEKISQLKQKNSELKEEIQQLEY

P6mSN = biological target: T15, P6mSN
T15 chain: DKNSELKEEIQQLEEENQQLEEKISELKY

P7mSN = biological target: T16, P7mSN
T16 chain: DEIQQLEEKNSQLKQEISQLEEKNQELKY

P8mSN = biological target: T17, P8mSN
T17 chain: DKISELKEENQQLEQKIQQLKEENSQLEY

P9mSN = biological target: T18, P9mSN
T18 chain: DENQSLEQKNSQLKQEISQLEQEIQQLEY

4H2618-bN = biological target: T19, 4H2618-bN
T19 chain: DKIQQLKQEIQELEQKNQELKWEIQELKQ

4H2667-bN = biological target: T20, 4H2667-bN
T20 chain: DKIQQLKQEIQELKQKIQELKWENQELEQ

4H2729-bN = biological target: T21, 4H2729-bN
T21 chain: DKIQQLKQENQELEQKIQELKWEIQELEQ

4H3112-bN = biological target: T22, 4H3112-bN
T22 chain: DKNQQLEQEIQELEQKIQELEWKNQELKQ

4H3185-bN = biological target: T23, 4H3185-bN
T23 chain: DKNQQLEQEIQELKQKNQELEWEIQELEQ

4H331-bN = biological target: T24, 4H331-bN
T24 chain: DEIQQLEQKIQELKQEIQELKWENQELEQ

4H3354-bN = biological target: T25, 4H3354-bN
T25 chain: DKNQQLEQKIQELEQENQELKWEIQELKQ

4H338-bN = biological target: T26, 4H338-bN
T26 chain: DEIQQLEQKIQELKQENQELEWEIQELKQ

4H3427-bN = biological target: T27, 4H3427-bN
T27 chain: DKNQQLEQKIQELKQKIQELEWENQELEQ

4H3628-bA = biological target: T28, 4H3628-bA
T28 chain: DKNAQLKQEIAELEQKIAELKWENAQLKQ

4H3782-bN = biological target: T29, 4H3782-bN
T29 chain: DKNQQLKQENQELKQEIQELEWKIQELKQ

4H3855-bN = biological target: T30, 4H3855-bN
T30 chain: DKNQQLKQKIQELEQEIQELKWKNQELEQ

4H4001-bN = biological target: T31, 4H4001-bN
T31 chain: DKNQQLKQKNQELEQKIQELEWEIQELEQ

4H454-bN = biological target: T32, 4H454-bN
T32 chain: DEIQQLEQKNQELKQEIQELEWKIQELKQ

4H568-bN = biological target: T33, 4H568-bN
T33 chain: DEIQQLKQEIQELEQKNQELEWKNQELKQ

4H607-bN = biological target: T34, 4H607-bN
T34 chain: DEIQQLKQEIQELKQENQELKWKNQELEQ

4H687-bN = biological target: T35, 4H687-bN
T35 chain: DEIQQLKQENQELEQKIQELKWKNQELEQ

4H717-bN = biological target: T36, 4H717-bN
T36 chain: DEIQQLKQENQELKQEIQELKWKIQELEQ

4H72-bN = biological target: T37, 4H72-bN
T37 chain: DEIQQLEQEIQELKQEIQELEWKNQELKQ

4H754-bN = biological target: T38, 4H754-bN
T38 chain: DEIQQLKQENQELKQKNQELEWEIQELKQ

4H797-bN = biological target: T39, 4H797-bN
T39 chain: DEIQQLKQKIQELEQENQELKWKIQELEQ

4H883-bN = biological target: T40, 4H883-bN
T40 chain: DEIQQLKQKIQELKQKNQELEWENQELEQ

4H908-bN = biological target: T41, 4H908-bN
T41 chain: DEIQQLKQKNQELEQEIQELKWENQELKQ

4H918-bN = biological target: T42, 4H918-bN
T42 chain: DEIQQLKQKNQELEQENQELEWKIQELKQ

4H953-bN = biological target: T43, 4H953-bN
T43 chain: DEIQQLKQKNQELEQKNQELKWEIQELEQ

4H967-bN = biological target: T44, 4H967-bN
T44 chain: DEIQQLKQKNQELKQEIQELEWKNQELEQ

DKNAQLKQKNAELKQKIAELKWEIAQLEQ [4H4073-bA]
interaction score (4H4073-bA): -0.968
interaction score (4H457-bA): -1.06
interaction score (4H575-bA): -1.51
interaction score (4H683-bA): -0.684
interaction score (4H754-bA): -1.31
interaction score (4H780-bA): -1.4
interaction score (4H797-bA): -1.27
interaction score (4H855-bA): -1.17
interaction score (4H918-bA): -0.789
interaction score (4H949-bN): -1.71
interaction score (4H953-bA): -1.91
interaction score (4H968-bA): -1.01
interaction score (P3mSN): -4.32

DEIQQLEEEISQLEQKNSELKEKNQELKY [P3mSN]
interaction score (P3mSN): -0.0204
interaction score (P5mSN): -0.781
interaction score (P6mSN): -0.522
interaction score (P7mSN): -0.239
interaction score (P8mSN): -0.172
interaction score (P9mSN): -0.0425

DKIQQLKQEIQELEQKNQELKWEIQELKQ [4H2618-bN]
interaction score (4H2618-bN): 0.45
interaction score (4H2667-bN): -0.229
interaction score (4H2729-bN): 1.51
interaction score (4H3112-bN): -0.924
interaction score (4H3185-bN): 0.0545
interaction score (4H331-bN): -0.0801
interaction score (4H3354-bN): -0.374
interaction score (4H338-bN): 0.959
interaction score (4H3427-bN): 0.0822
interaction score (4H3628-bA): 0.00803
interaction score (4H3782-bN): -0.594
interaction score (4H3855-bN): -0.781
interaction score (4H4001-bN): -0.538
interaction score (4H454-bN): 0.067
interaction score (4H568-bN): -1.88
interaction score (4H607-bN): -0.0391
interaction score (4H687-bN): -0.758
interaction score (4H717-bN): -0.442
interaction score (4H72-bN): -0.128
interaction score (4H754-bN): -0.67
interaction score (4H797-bN): -0.249
interaction score (4H883-bN): 0.595
interaction score (4H908-bN): -1.09
interaction score (4H918-bN): 0.558
interaction score (4H953-bN): -1.12
interaction score (4H967-bN): -1.39
